The target in one data set is T1, Abz-LMVGGK(Dnp)-CONH2.
T1 chain: LMVGGK

The next data set concerns the target T2, Abz-LPESGK(Dnp)-CONH2.
T2 chain: LPESGK

In the next data set the target is T3, Btn-LMVGG.
T3 chain: GLMVGGV

Data set [1] has as its target T4, LPESG substrate (flow cytometry panel).
T4 chain: LPESG

The target in data set [2] is T5, LPPAG substrate (flow cytometry panel).
T5 chain: LPPAG

In data set [3] the target is T6, endogenous fetuin A in human plasma, P02765.
T6 chain: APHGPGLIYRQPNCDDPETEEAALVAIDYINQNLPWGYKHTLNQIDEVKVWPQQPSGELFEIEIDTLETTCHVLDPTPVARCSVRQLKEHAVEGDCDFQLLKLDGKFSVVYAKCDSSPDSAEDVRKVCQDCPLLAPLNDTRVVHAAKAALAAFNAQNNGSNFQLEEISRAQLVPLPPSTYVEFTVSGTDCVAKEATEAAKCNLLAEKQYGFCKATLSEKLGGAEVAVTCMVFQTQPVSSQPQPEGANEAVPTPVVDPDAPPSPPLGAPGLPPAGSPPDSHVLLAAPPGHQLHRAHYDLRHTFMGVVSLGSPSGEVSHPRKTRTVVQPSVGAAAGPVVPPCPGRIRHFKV

Another data set concerns the target T7, purified fetuin A.
T7 sequence (P02765 19-300, species assumed, looked up): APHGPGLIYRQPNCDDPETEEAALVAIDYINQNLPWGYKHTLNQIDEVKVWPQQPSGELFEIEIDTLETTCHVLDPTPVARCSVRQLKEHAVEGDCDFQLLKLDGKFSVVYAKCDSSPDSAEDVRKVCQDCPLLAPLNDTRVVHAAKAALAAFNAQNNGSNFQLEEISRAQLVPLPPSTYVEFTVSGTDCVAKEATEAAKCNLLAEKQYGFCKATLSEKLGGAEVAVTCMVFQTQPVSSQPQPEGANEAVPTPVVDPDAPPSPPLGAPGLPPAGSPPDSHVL
T7 sequence (P02765 341-367, species assumed, looked up): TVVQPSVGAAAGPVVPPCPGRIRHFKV

Sequence of Aβ40, P05067 (P05067 whole entry, looked up): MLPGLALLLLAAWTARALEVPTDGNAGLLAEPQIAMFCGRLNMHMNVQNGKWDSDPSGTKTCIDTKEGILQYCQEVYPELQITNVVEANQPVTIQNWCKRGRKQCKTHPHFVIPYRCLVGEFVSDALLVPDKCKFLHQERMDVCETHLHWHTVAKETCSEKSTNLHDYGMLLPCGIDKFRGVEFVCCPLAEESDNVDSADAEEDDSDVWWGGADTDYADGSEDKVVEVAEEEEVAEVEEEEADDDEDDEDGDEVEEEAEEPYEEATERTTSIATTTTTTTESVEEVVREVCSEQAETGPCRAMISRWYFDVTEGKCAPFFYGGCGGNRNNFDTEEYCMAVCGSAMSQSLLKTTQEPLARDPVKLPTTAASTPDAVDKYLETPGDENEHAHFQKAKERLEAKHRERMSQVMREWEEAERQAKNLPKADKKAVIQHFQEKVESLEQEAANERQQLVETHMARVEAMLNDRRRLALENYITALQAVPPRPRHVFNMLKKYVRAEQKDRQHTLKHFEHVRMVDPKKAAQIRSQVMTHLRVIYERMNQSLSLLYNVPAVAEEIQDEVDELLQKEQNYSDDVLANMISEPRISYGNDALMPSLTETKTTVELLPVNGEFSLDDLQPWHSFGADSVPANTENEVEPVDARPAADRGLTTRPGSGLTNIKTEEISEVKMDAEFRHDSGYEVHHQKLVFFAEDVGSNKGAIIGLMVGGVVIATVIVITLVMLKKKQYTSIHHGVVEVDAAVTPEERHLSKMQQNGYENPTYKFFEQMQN
Sequence of Aβ42, P05067 (P05067 whole entry, looked up): as above
Sequence of Aβ43, P05067 (P05067 whole entry, looked up): as above
Sequence of AβM1-40, P05067 (P05067 whole entry, looked up, tested part not stated): as the sequence (P05067 whole entry, looked up) above
Sequence of AβM1-42, P05067 (P05067 whole entry, looked up, tested part not stated): as the sequence (P05067 whole entry, looked up) above

B1: SrtAβ (protein)
chain: MKKWTNRLMTIAGVVLILVAAYLFAKPHIDNYLHDKDKDEKIEQYDKNVKEQASKDKKQQAKPQIPKDKSKVAGYLEIPDADIKEPVYPGPATREQLDRGVCFVDEDESLDDQNISIIGHTALLRPHYQFTNLRAAKLDSIVYFTVGNETRRYKITSICNVRPTAVEVLDEHEGKDRQLTLATCDDYNYETGVWESSKIFVATEVR
For B1, in the data set with Abz-LMVGGK(Dnp)-CONH2, the KM entry is listed as “KM=128 µM (95% CI=87 to 198 µM)” and the kcat entry is given as “kcat=0.018 s-1 (95% CI=0.015 to 0.023 s-1)”. Moreover, the “kinetic parameters (HPLC assay)” value with Abz-LPESGK(Dnp)-CONH2 was “SrtAβ activity on LPESG [SEQ ID NO: 4] was too low to establish accurate kinetic parameters”. In addition, in the data set with Aβ40, P05067, the “biotinylated product formed in human plasma (streptavidin capture ELISA)” value is 1.5 µM SrtAβ generating 2.3 µM of biotinylated product from 5 µM Aβ40 in two hours; the “lowest Aβ40 concentration at which labeling was observed in human plasma (m266 capture ELISA)” value is on record as “labeling of Aβ40 spiked into human plasma at concentrations as low as 5 nM was observed”; the “modification by the sortase” value was “SrtAβ has been shown to modify Aβ40, Aβ42, and Aβ43”; the “yield of transpeptidation products with glycine nucleophiles (HPLC)” value was “the expected transpeptidation products were observed in yields of 80-88%”. In the data set with Aβ42, P05067, the “conversion to transpeptidation product with 200 µM GGGRR (HPLC)” value is listed as “as opposed to 50% when reacted with 200 µM GGGRR”; the “conversion to transpeptidation product with 1 mM GGGRR (HPLC)” value was 64% of the Aβ42 was converted to the expected product when reacted with 1 mM GGGRR; the “modification by the sortase” value is “SrtAβ has been shown to modify Aβ40, Aβ42, and Aβ43”. Also, the “modification by the sortase” value with Aβ43, P05067 was “SrtAβ has been shown to modify Aβ40, Aβ42, and Aβ43”. Also, the “conversion to transpeptidation product with GGGK(Btn) (HPLC)” value with AβM1-40, P05067 is 82% of the starting AβM1-40 was converted to the desired product. The “conversion to transpeptidation product with GGGRR (HPLC)” value with AβM1-42, P05067 is given as 64% of the starting AβM1-42 was converted to the desired product. In addition, in the data set with Btn-LMVGG, the “change in substrate preference against 4S.6 (flow cytometry)” value was 1,470-fold change in preference to favor LMVGG [SEQ ID NO: 3] over LPESG [SEQ ID NO: 4]; the “fold change of activity against 4S.6 (flow cytometry, yeast display)” value (“fold change … (flow cytometry, yeast display)” for short) is recorded as 28-fold increased activity on LMVGG; the “substrate preference, LMVGG over LPESG (flow cytometry)” value was 30-fold preference for LMVGG [SEQ ID NO: 3] over LPESG [SEQ ID NO: 4]. The “fold change … (flow cytometry, yeast display)” value in data set [1] was 53-fold reduced activity on LPESG. For the same protein, the “fold change … (flow cytometry, yeast display)” value in data set [2] is given as 11-fold reduced activity on LPPAG. In addition, in data set [3], the “activity on fetuin A in human plasma (streptavidin pulldown, Coomassie)” value is recorded as “a sortase variant with greatly reduced activity on fetuin A relative to the starting sortase 4S.6 was generated” and the “labeling with GGGK(Btn) in human plasma, Western blot” value is recorded as 4S.6, but not SrtAβ, labels fetuin A.

B2: SrtAβ reversion mutant A182V (protein)
chain: MKKWTNRLMTIAGVVLILVAAYLFAKPHIDNYLHDKDKDEKIEQYDKNVKEQASKDKKQQAKPQIPKDKSKVAGYLEIPDADIKEPVYPGPATREQLDRGVCFVDEDESLDDQNISIIGHTALLRPHYQFTNLRAAKLDSIVYFTVGNETRRYKITSICNVRPTAVEVLDEHEGKDRQLTLVTCDDYNYETGVWESSKIFVATEVR
B2 had a reduction of activity against SrtAβ (flow cytometry, yeast display) in the data set with Btn-LMVGG of 2 fold.

B3: SrtAβ reversion mutant R134G (protein)
chain: MKKWTNRLMTIAGVVLILVAAYLFAKPHIDNYLHDKDKDEKIEQYDKNVKEQASKDKKQQAKPQIPKDKSKVAGYLEIPDADIKEPVYPGPATREQLDRGVCFVDEDESLDDQNISIIGHTALLRPHYQFTNLGAAKLDSIVYFTVGNETRRYKITSICNVRPTAVEVLDEHEGKDRQLTLATCDDYNYETGVWESSKIFVATEVR
B3: the reduction of activity against SrtAβ (flow cytometry, yeast display) with Btn-LMVGG was found to be 2 fold.

B4: SrtAβ reversion mutant C159R (protein)
chain: MKKWTNRLMTIAGVVLILVAAYLFAKPHIDNYLHDKDKDEKIEQYDKNVKEQASKDKKQQAKPQIPKDKSKVAGYLEIPDADIKEPVYPGPATREQLDRGVCFVDEDESLDDQNISIIGHTALLRPHYQFTNLRAAKLDSIVYFTVGNETRRYKITSIRNVRPTAVEVLDEHEGKDRQLTLATCDDYNYETGVWESSKIFVATEVR
As to B4, the reduction of activity against SrtAβ (flow cytometry, yeast display) in the data set with Btn-LMVGG came out at 2 fold.

B5: SrtAβ reversion mutant R177K (protein)
chain: MKKWTNRLMTIAGVVLILVAAYLFAKPHIDNYLHDKDKDEKIEQYDKNVKEQASKDKKQQAKPQIPKDKSKVAGYLEIPDADIKEPVYPGPATREQLDRGVCFVDEDESLDDQNISIIGHTALLRPHYQFTNLRAAKLDSIVYFTVGNETRRYKITSICNVRPTAVEVLDEHEGKDKQLTLATCDDYNYETGVWESSKIFVATEVR
With B5, the reduction of activity against SrtAβ (flow cytometry, yeast display) with Btn-LMVGG is 2 fold.

B6: minimal mutant (4S.6 with S118I, G134R, R159C, K177R, V182A, and R197S mutations) (protein)
chain: QAKPQIPKDKSKVAGYIEIPDADIKEPVYPGPATREQLDRGVSFVEENESLDDQNISIIGHTAIDRPNYQFTNLRAAKKGSMVYFKVGNETRKYKMTSICNVKPTAVEVLDEQKGKDRQLTLATCDDYNVETGVWETSKIFVATEVK
On to B6, for which, in the data set with Btn-LMVGG, the “fold change of activity against 4S.6 (flow cytometry)” value is 4-fold improvement in LMVGG [SEQ ID NO: 3] activity relative to 4S.6 and the “fold change of activity against SrtAβ (flow cytometry)” value is reported as 23-fold lower activity than SrtAβ.

B7: round 7 consensus sequence (R7) reversion mutant L124D (protein)
chain: QAKPQIPKDKSKVAGYIEIPDADIKEPVYPGPATYEQLDRGVSFVEENESLDDQNISIIGHTALDRPNYQFTNLRAAKIGSMVYFKVGNETRKYKMTSIRNVKPTAVEVLDEQEGKDKQLTLATCDDYNFETGVWESSKIFVATEVK
Turning to B7, in the data set with Btn-LMVGG, the “fold change of activity against the round 7 consensus sequence (flow cytometry, 100-1000 nM Btn-LMVGG)” value is “L124D (1.1-fold)”.

B8: round 7 consensus sequence (R7) reversion mutant Y94R (protein)
chain: QAKPQIPKDKSKVAGYIEIPDADIKEPVYPGPATREQLDRGVSFVEENESLDDQNISIIGHTALLRPNYQFTNLRAAKIGSMVYFKVGNETRKYKMTSIRNVKPTAVEVLDEQEGKDKQLTLATCDDYNFETGVWESSKIFVATEVK
Consider B8, for which the “fold change of activity against the round 7 consensus sequence (flow cytometry, 100-1000 nM Btn-LMVGG)” value with Btn-LMVGG is given as “Reversion mutant Y94R showed a 2.3-fold improvement on average across substrate concentrations compared to the round 7 consensus sequence”.

B9: round 7 consensus sequence (R7) reversion mutant L123I (protein)
chain: QAKPQIPKDKSKVAGYIEIPDADIKEPVYPGPATYEQLDRGVSFVEENESLDDQNISIIGHTAILRPNYQFTNLRAAKIGSMVYFKVGNETRKYKMTSIRNVKPTAVEVLDEQEGKDKQLTLATCDDYNFETGVWESSKIFVATEVK
On to B9, for which the “fold change of activity against the round 7 consensus sequence (flow cytometry, 100-1000 nM Btn-LMVGG)” value with Btn-LMVGG is given as “L123I (1.5-fold)”.

B10: sortase 4S.6 (protein)
chain: QAKPQIPKDKSKVAGYIEIPDADIKEPVYPGPATREQLDRGVSFVEENESLDDQNISISGHTAIDRPNYQFTNLGAAKKGSMVYFKVGNETRKYKMTSIRNVKPTAVEVLDEQKGKDKQLTLVTCDDYNVETGVWETRKIFVATEVK
For B10, the kinetic parameters with Abz-LMVGGK(Dnp)-CONH2 was 4S.6 activity on LMVGG [SEQ ID NO: 3] was not detectable. Also, in the data set with Abz-LPESGK(Dnp)-CONH2, the KM result is listed as “KM=610 µM (95% CI=90 to 5550 µM)” and the kcat entry was “kcat=0.36 s-1 (95% CI=0.22 to 0.96 s-1)”. In addition, the “substrate preference, LPESG over LMVGG (flow cytometry)” value in data set [1] was 49-fold preference for LPESG [SEQ ID NO: 4] over LMVGG [SEQ ID NO: 3]. Further, the “labeling with GGGK(Btn) in human plasma, Western blot” value in data set [3] is 4S.6, but not SrtAβ, labels fetuin A.

B11: SrtA 8.5-H3 (protein)
chain: MKKWTNRLMTIAGVVLILVAAYLFAKPHIDNYLHDKDKDEKIEQYDKNVKEQASKDKKQQARPQIPKDKSKVAGYIEIPDADIKEPVYPGPATREQLDRGVSFVEEDESLDDQNISIIGHTALLRPNYQFTNLRAAKIGSMVYFKVGNETRKYKMTSIRNVKPTAVEVLDEQEGKDRQLTLATCDDYNIETGVWESSKIFVATEVK
With B11, in the data set with Abz-LMVGGK(Dnp)-CONH2, the KM entry is given as “KM=52 µM (95% CI=29 to 103 µM)”, the kcat result was “kcat=0.012 s-1 (95% CI=0.009 to 0.017 s-1)” and the “percent of substrate converted to product (HPLC assay for SrtA activity)” value was “converting 10% of M substrate to product in two hours”. For the same protein, the “labeling with GGGK(Btn) in human plasma, Western blot” value in data set [3] was “Western blot of overnight reaction of SrtA 8.5-H3 (50 µM) and GGGK[SEQ ID NO: 6](Btn) (1 mM) in human plasma shows labeling of endogenous fetuin A”. For the same protein, the “labeling with GGGK(Btn), Western blot” value in the data set with purified fetuin A is on record as “Labeled fetuin A is detected by Western blot”.

These data come from patent US20240077502.
